Test results published in patent US9023604 (IBA, dated 2015).
Positions count from the first letter of the chain named. In names and notes the source's numbering stands.

B1: 13B8.2 Fab fragment (variable domains of murine anti-CD4 antibody 13B8.2, human CH1 gamma1 and human kappa constant domains), heavy chain fused to One-STrEP-tag (Fab, V domains shown)
VH: QVQLKQSGPGLVQPSQSLSITCTVSGFSLTTFGVHWVRQSPGKGLEWLGVIWRSGITDYNVPFMSRLSITKDNSKSQVFFKLNSLQPDDTAIYYCAKNDPGTGFAYWGQGTLVTVSA
VL: DIQMTQSPASLSASVGETVTFTCRASEMIYSYLAWYQQKQGKSPQLLVHDAKTLAEGVPSRFSGGGSGTQFSLKINTLQPEDFGTYYCQHHYGNPPTFGGGTKLEIKR
notes: Expressed in the E. coli periplasm; Stained as a monomer or multimerized on Strep-Tactin PE; also called CD4 wt (13B8.2); 13B8.2 wildtype (wt) Fab fragment
B2: Mutant 13B8.2 Fab fragment with His at position 35 of the heavy chain mutated to Ala, heavy chain fused to One-STrEP-tag (Fab, V domains shown)
VH: B1 VH with H35A
VL: B1 VL
notes: also called CD4 mutant 3 (H35A); mutant 3
B3: Mutant 13B8.2 Fab fragment with His at position 91 of the light chain mutated to Ala, heavy chain fused to One-STrEP-tag (Fab, V domains shown)
VH: B1 VH
VL: B1 VL with H91A
notes: also called CD4 mutant 4 (H91A); mutant 4
B4: Mutant 13B8.2 Fab fragment with Phe at position 100 of the heavy chain mutated to Ala, heavy chain fused to One-STrEP-tag (Fab, V domains shown)
VH: B1 VH with F104A
VL: B1 VL
notes: also called CD4 mutant 1 (F100A); F100K-H
B5: Mutant 13B8.2 Fab fragment with Tyr at position 92 of the light chain mutated to Ala, heavy chain fused to One-STrEP-tag (Fab, V domains shown)
VH: B1 VH
VL: B1 VL with Y92A
notes: also called CD4 mutant 2 (Y92A); mutant 2

Assays:
[1] = target: T1, CD4 cell surface receptor molecule on peripheral blood mononuclear cells (PBMCs) (human, UniProt P01730 26-458); assay: flow cytometry, PBMCs, live CD3+ T cells; column 'Fab multimer -> D-biotin': Fab-multimer staining analysed after treatment with D-biotin
T1 construct: whole, on cells; also called CD4 receptor molecule
Description: (§1) Remaining Fab-monomers (i.e. Fab fragments used as receptor binding reagent) on the target cell surface were then detected after subsequent washing steps to remove […] using Strep-Tactin PE alone (without bound Fab fragments) (fourth column). Fab-multimer staining after the reversible staining described above of the cells was performed again (fifth column) to control completion of biotin removal which otherwise would have hampered the staining of remaining Fab-monomers with Strep-Tactin PE alone (without bound Fab fragments) as shown in the fourth column and which thus would have led to a wrong conclusion of the experiment. Alternatively, cells were incubated with monomeric Fab-fragments, washed and subsequently analyzed after staining with Strep-Tactin® PE (first, i.e. left-most column). Live CD3^+ T cells are shown. Numbers in the dot plots indicate the percentage of cells within gates.
(§2) For staining of a CD4 receptor molecule specific target cell population in a mixture of cells, Strep-Tactin® labeled with phycoerythrine as a fluorescent label (IBA GmbH, Göttingen, Germany) was used as multimerization reagent together with the monomeric CD4 binding Fab-One-STrEP fragment of the variants of the antibody 13B8.2 (that served as receptor binding reagent) as described below. For FACS analysis 5×10^6 PBMCs were incubated with Fab multimers consisting of 0.2 μg Fab-fragment (comprising binding site B) equipped with the One-STrEP-tag (binding partner C) as receptor binding reagent and 0.75 μg Strep-Tactin® PE (IBA GmbH, Göttingen, Germany) as multimerization reagent using the protocol below. In addition, after FACS separation, the multivalent complexes were disrupted in a portion of each of the stained cells by addition of biotin as described below. Control antibody stainings were performed by concomitant application of the respective antibody: anti-CD4 (OKT4) (from eBiosciences, San Diego, Calif., USA). After the staining procedure of the present invention, cells were subsequently stained with propidium iodide for live/dead discrimination.
(§3) For staining and dissociation experiments, 5 ×10^6 PBMCs were incubated with the respective anti-CD4 Fab-multimer-Strep-Tactin® PE complexes or with the corresponding Fab-monomers (the latter not complexed with Strep-Tactin® PE).

[2] = target: T1, CD4 cell surface receptor molecule on …; assay: flow cytometry, PBMCs, live CD3+ T cells; column 'Fab multimer -> D-biotin -> Fab multimer': second Fab-multimer staining after D-biotin and washing
Description: as §1, with “Peripheral Blood Mononuclear Cells (PBMCs) were stained with anti-CD4 Fab fragments (receptor binding reagent) fused to a sequential arrangement of two Strep-tag® sequences (commercially available under the trade name "One-STrEP-tag"; binding partner C) and multimerized on phycoerythrin labeled Strep-Tactin® (Strep-Tactin PE; IBA GmbH, Göttingen, Germany; multimerization reagent comprising at least 2 binding sites Z for the binding partner C) and analyzed either before (second column) or after treatment with D-biotin (third column). Remaining” for “Remaining”
as §3

[3] = target: T1, CD4 cell surface receptor molecule on …; assay: flow cytometry, PBMCs, live CD3+ T cells; column 'Fab monomer -> ST-PE': cells incubated with monomeric Fab, washed, then stained with Strep-Tactin PE; y axis CD4 Fab-multimer / Fab-monomer, x axis CD8
Description: as §1, with “Peripheral Blood Mononuclear Cells (PBMCs) were stained with anti-CD4 Fab fragments (receptor binding reagent) fused to a sequential arrangement of two Strep-tag® sequences (commercially available under the trade name "One-STrEP-tag"; binding partner C) and multimerized on phycoerythrin labeled Strep-Tactin® (Strep-Tactin PE; IBA GmbH, Göttingen, Germany; multimerization reagent comprising at least 2 binding sites Z for the binding partner C) and analyzed either before (second column) or after treatment with D-biotin (third column). Remaining” for “Remaining”
(§4) For staining and dissociation experiments, 5 ×10^6 PBMCs were incubated with the respective anti-CD4 Fab-multimer-Strep-Tactin® PE complexes or with the corresponding Fab-monomers (the latter not complexed with Strep-Tactin® PE). […] After D-biotin-mediated disruption of the multimeric complexes (FIG. 2, third column) and subsequent washing, the cells were probed for residual surface-bound Fab fragments by the addition of Strep-Tactin® PE alone (without bound Fab) (FIG. 2, fourth column).

[4] = target: T1, CD4 cell surface receptor molecule on …; assay: flow cytometry, PBMCs, live CD3+ T cells; column 'Fab multimer': Fab multimerized on Strep-Tactin PE
Description: as §1, §2
Protocol for Staining of 5×10^6 Cells with Receptor Binding Reagent and Multimerization Reagent 1. 0.75 μg Strep-Tactin PE were incubated with 0.2 μg monomeric CD4 binding Fab-One-STrEP fragment for 30 minutes at 4° C. in the dark. 2.

[5] = target: T1, CD4 cell surface receptor molecule on …; assay: flow cytometry, PBMCs, live CD3+ T cells; column 'Fab multimer -> D-biotin -> ST-PE': after D-biotin and washing, remaining Fab monomers detected with Strep-Tactin PE alone
Description: as §1, with “Peripheral Blood Mononuclear Cells (PBMCs) were stained with anti-CD4 Fab fragments (receptor binding reagent) fused to a sequential arrangement of two Strep-tag® sequences (commercially available under the trade name "One-STrEP-tag"; binding partner C) and multimerized on phycoerythrin labeled Strep-Tactin® (Strep-Tactin PE; IBA GmbH, Göttingen, Germany; multimerization reagent comprising at least 2 binding sites Z for the binding partner C) and analyzed either before (second column) or after treatment with D-biotin (third column). Remaining” for “Remaining”
as §4

Binder	percentage of cells within gate [1] [%]	percentage of cells within gate [2] [%]	percentage of cells within gate [3] [%]	percentage of cells within gate [4] [%]	percentage of cells within gate [5] [%]
B1	0.041	18.8	20	23.3	16.1
B2	0.041	19.3	0.007	23.4	0.019
B3	0.017	20	0.0039	23.1	0.00284
B4	0.014	19.2	19.9	23	16.4
B5	0.034	18.8	0.0022	14.7	0.0017
